In US9987242B2, “Treatment of Levodopa-induced Dyskinesias” (NORTHWESTERN UNIVERSITY, priority 2015, dated 2018):
Entries after “also recorded” stand apart in the source; their conditions may differ.

B1: muscarinic toxin 3 (protein, UniProt P81031 1-65, looked up)
Muscarinic toxin 3: LTCVTKNTIFGITTENCPAGQNLCFKRWHYVIPRYTEITRGCAATCPIPENYDSIHCCKTDKCNE

Assays:
PD disability = experiment: Primate PD disability (anti-parkinsonian effect of L-DOPA); format: in vivo; settings: with L-DOPA; n=4; p>0.05
Text: (§1) FIG. 18. […] Data are represented as median.

[1] = test system: primate dyskinetic scores; experiment: Primate dyskinesia scores; format: in vivo; settings: with L-DOPA; n=4
Text: FIG. 12. Plot of sum of primate dyskinesia scores (median) as a function of time (Fr=11.64, n=4; p<0.01, Friedman's test).
as §1

iSPNs = experiment: Spike-timing-dependent LTD induction (post-pre pairing) in iSPNs, ex vivo slices; format: cell-based, mice; settings: MT3 100 nM
Experimental: Mice were deeply anesthetized intraperitoneally with a mixture of ketamine (50 mg kg−1) and xylazine (4 mg kg−1) and perfused transcardially with 5-10 ml of ice-cold artificial CSF (aCSF) comprising (in mM): 125 NaCl, 2.5 KCl, 1.25 NaH2PO4, 2.0 CaCl2, 1.0 MgCl2, 26 NaHCO3 and 10 glucose (305 mOsm l^−1). Parasagittal corticostriatal slices (250 μm) were cut in ice-cold external solution containing (mM) 110 choline chloride, 26 NaHCO3, 1.25 NaH2PO4, 2.5 KCl, 0.5 CaCl2, 7 MgCl2, 11.6 sodium ascorbate, 3.1 sodium pyruvate and 5 glucose (305 mOsm l^−1). Slices were then transferred to a holding chamber containing aCSF. After an incubation period at 34° C. for 30 min, the slices were then kept in the holding chamber at the room temperature for another 30 min before use.
(§2) To determine if M4Rs were modulating synaptic plasticity, a spike-timing-dependent plasticity (STDP) paradigm was used. […] Once identified, neurons were monitored and controlled with perforated-patch recording to preserve intracellular signaling mechanisms and to allow stable, long-term monitoring of synaptic strength (FIG. 1A).

[2] = test system: dSPN glutamatergic synapses; experiment: Spike-timing-dependent LTD induction (post-pre pairing) in dSPNs, ex vivo corticostriatal slices, perforated-patch or whole-cell recording; format: cell-based, mice
Text: Male C57Bl/6 and FVB mice expressing tdTomato or eGFP under control of either the Drd1 or Drd2 receptor regulatory elements were used. All the mice used for the study were hemizygous for these transgenes. For some experiments, D1-tdTomato BAC mice were crossed with a transgenic line expressing Cre recombinase under control of the ChAT promoter. All mice were 8-10 weeks of age before stereotaxic surgery. Animal use procedures were reviewed and approved by the Northwestern Institutional Animal Care and Use Committee.
Slices were then transferred to a holding chamber containing aCSF. After an incubation period at 34° C. for 30 min, the slices were then kept in the holding chamber at the room temperature for another 30 min before use.
Individual slices were transferred to a recording chamber and were continuously perfused (2-3 ml min^−1) with aCSF for the duration of the experiment. Experiments were performed in the dorsolateral striatum at elevated temperature (30-31° C.).
All the recordings were made using a MultiClamp 700 A amplifier, and signals were filtered at 2 kHz and digitized at 10 kHz. Data were excluded when the series resistance changed >20% over the time course of the experiment. […] Capacitance current was continuously monitored during perforation by applying a 5-10 mV pulse from a holding potential of −70 mV. The amplifier bridge circuit was adjusted to compensate for series resistance and continuously monitored during recordings. Electrode capacitance was also compensated. Data were excluded when the input resistance (Ri) changed >20% over the time course of the experiment.
Data analysis was conducted with Igor Pro 6 (Wavemetrics, Lake Oswego, Oreg.) and Clampfit 9 (Molecular Devices). EPSP amplitude was calculated from 50-60 sweeps immediately before the start of induction and 20-30 min after the end of induction. The change in EPSP amplitude was calculated by averaging EPSP values after the induction and normalized to the average baseline EPSP amplitude. Compiled data were expressed as mean±s.e.m. Statistical tests were performed using Excel (Microsoft, Redmond, Wash.) and SigmaStat (Systat, San Jose, Calif.). Non-parametric Mann-Whitney or Wilcoxon tests were used to assess the experiment results, using a probability threshold of 0.05.
as §2
Synaptic plasticity was induced by pairing local stimulation of glutamatergic afferent fibers with postsynaptic spikes evoked by short bursts of intracellular current injection that were repeated at 5 Hz (FIGS. 1B, 4A).

Row | Molecule | anti-parkinsonian effect of L-DOPA on PD disability (PD disability) | primate dyskinetic scores [1] | LTD induction in iSPNs (iSPNs) | LTD induction in dSPNs ([2]; MT3 100 nM with CNO) | LTD induction in dSPNs (EPSP amplitude) ([2]; MT3 100 nM with physostigmine 10 μM + VU10010 5 μM, 20 repetitions) | LTD induction in dSPNs (EPSP amplitude) ([2]; post-pre pairing, MT3 100 nM along with SCH23390)
1 | Cc1nnc2sc(C(=O)NCc3ccc(-c4cccnc4F)cc3)c(N)c2c1C [VU0476406] | did not occur at the expense of anti-parkinsonian effect of L-DOPA | reduction in primate dyskinetic scores |  |  |  | 
2 | B1 |  |  | LTD was induced | LTD was blunted | induction was blunted | blocked induction of LTD; also recorded: LTD was disrupted
